± gives the uncertainty stated by the source.
B1: Spectrin alpha chain, erythrocytic 1, residues 979 to 1036; numbered along this chain, P02549 (parent)
chain: EQRVMALYDFQARSPREVTMKKGDVLTLLSSINKDWWKVEAADHQGIVPAVYVRRLAH

Variants of: B1
Experiment: abundance fitness (aPCA) (normalised: wild type 0, dead -1); higher = more abundant; growth selection in yeast, the domain comes from the species named
Settings: Homo sapiens

| Variant | abundance fitness |
| --- | --- |
| EQRVMALYDFMARSPREVTMKKGDVLTLLSSINKDWWKVEAADHQGIVPAVYVRRLAH [Q11M] | -0.314 ± 0.092 |
| EQRVMALYDFQARCPREVTMKKGDVLTLLSSINKDWWKVEAADHQGIVPAVYVRRLAH [S14C] | -0.571 ± 0.37 |
| EQRVMALYDFQARQPREVTMKKGDVLTLLSSINKDWWKVEAADHQGIVPAVYVRRLAH [S14Q] | -0.769 ± 0.26 |
| EQRVMALYDFQARLPREVTMKKGDVLTLLSSINKDWWKVEAADHQGIVPAVYVRRLAH [S14L] | -0.866 ± 0.21 |
| EQRVMALYDFQARDPREVTMKKGDVLTLLSSINKDWWKVEAADHQGIVPAVYVRRLAH [S14D] | 0.134 ± 0.24 |
| EQRVMALYDFQARTPREVTMKKGDVLTLLSSINKDWWKVEAADHQGIVPAVYVRRLAH [S14T] | -0.069 ± 0.094 |
| EQRVMALYDFQARVPREVTMKKGDVLTLLSSINKDWWKVEAADHQGIVPAVYVRRLAH [S14V] | -0.677 ± 0.26 |
| EQRVMALYDFQARIPREVTMKKGDVLTLLSSINKDWWKVEAADHQGIVPAVYVRRLAH [S14I] | -0.276 ± 0.33 |
| EQRVMALYDFQARRPREVTMKKGDVLTLLSSINKDWWKVEAADHQGIVPAVYVRRLAH [S14R] | -0.364 ± 0.15 |
| EQRVMALYDFQARNPREVTMKKGDVLTLLSSINKDWWKVEAADHQGIVPAVYVRRLAH [S14N] | 0.014 ± 0.36 |
| EQRVMALYDFQARGPREVTMKKGDVLTLLSSINKDWWKVEAADHQGIVPAVYVRRLAH [S14G] | -0.358 ± 0.14 |
| EQRVMALYDFQARPPREVTMKKGDVLTLLSSINKDWWKVEAADHQGIVPAVYVRRLAH [S14P] | -0.802 ± 0.19 |
| EQRVMALYDFQARHPREVTMKKGDVLTLLSSINKDWWKVEAADHQGIVPAVYVRRLAH [S14H] | -0.292 ± 0.28 |
| EQRVMALYDFQARAPREVTMKKGDVLTLLSSINKDWWKVEAADHQGIVPAVYVRRLAH [S14A] | -0.743 ± 0.097 |
| EQRVMALYDFQARSPRAVTMKKGDVLTLLSSINKDWWKVEAADHQGIVPAVYVRRLAH [E17A] | -0.64 ± 0.23 |
| EQRVMALYDFQARSPRKVTMKKGDVLTLLSSINKDWWKVEAADHQGIVPAVYVRRLAH [E17K] | -0.403 ± 0.46 |
| EQRVMALYDFQARSPRFVTMKKGDVLTLLSSINKDWWKVEAADHQGIVPAVYVRRLAH [E17F] | -0.594 ± 0.46 |
| EQRVMALYDFQARSPRDVTMKKGDVLTLLSSINKDWWKVEAADHQGIVPAVYVRRLAH [E17D] | -0.738 ± 0.28 |
| EQRVMALYDFQARSPRCVTMKKGDVLTLLSSINKDWWKVEAADHQGIVPAVYVRRLAH [E17C] | -0.911 ± 0.41 |
| EQRVMALYDFQARSPRHVTMKKGDVLTLLSSINKDWWKVEAADHQGIVPAVYVRRLAH [E17H] | -0.63 ± 0.13 |
| EQRVMALYDFQARSPRGVTMKKGDVLTLLSSINKDWWKVEAADHQGIVPAVYVRRLAH [E17G] | -0.801 ± 0.27 |
| EQRVMALYDFQARSGREVTMKKGDVLTLLSSINKDWWKVEAADHQGIVPAVYVRRLAH [P15G] | -0.46 ± 0.1 |
| EQRVMALYDFQARSRREVTMKKGDVLTLLSSINKDWWKVEAADHQGIVPAVYVRRLAH [P15R] | -0.529 ± 0.14 |

| Variant | abundance fitness |
| --- | --- |
| EQRVMALYDFQARSTREVTMKKGDVLTLLSSINKDWWKVEAADHQGIVPAVYVRRLAH [P15T] | -0.293 ± 0.23 |
| EQRVMALYDFQARSAREVTMKKGDVLTLLSSINKDWWKVEAADHQGIVPAVYVRRLAH [P15A] | -0.252 ± 0.11 |
| EQRVMALYDFQARSKREVTMKKGDVLTLLSSINKDWWKVEAADHQGIVPAVYVRRLAH [P15K] | 0.089 ± 0.17 |
| EQRVMALYDFQARSVREVTMKKGDVLTLLSSINKDWWKVEAADHQGIVPAVYVRRLAH [P15V] | -0.561 ± 0.15 |
| EQRVMALYDFQARSEREVTMKKGDVLTLLSSINKDWWKVEAADHQGIVPAVYVRRLAH [P15E] | -0.077 ± 0.17 |
| EQRVMALYDFQARSSREVTMKKGDVLTLLSSINKDWWKVEAADHQGIVPAVYVRRLAH [P15S] | -0.178 ± 0.093 |
| EQRVMALYDFQARSYREVTMKKGDVLTLLSSINKDWWKVEAADHQGIVPAVYVRRLAH [P15Y] | 0.325 ± 0.43 |
| EQRVMALYDFQARSLREVTMKKGDVLTLLSSINKDWWKVEAADHQGIVPAVYVRRLAH [P15L] | -0.705 ± 0.2 |
| EQRVMALYDFQARSCREVTMKKGDVLTLLSSINKDWWKVEAADHQGIVPAVYVRRLAH [P15C] | -0.411 ± 0.25 |
| EQRVMALYDFQARSDREVTMKKGDVLTLLSSINKDWWKVEAADHQGIVPAVYVRRLAH [P15D] | 0.163 ± 0.16 |
| EQRVMALYDSQARSPREVTMKKGDVLTLLSSINKDWWKVEAADHQGIVPAVYVRRLAH [F10S] | -0.707 ± 0.21 |
| EQRVMALYDCQARSPREVTMKKGDVLTLLSSINKDWWKVEAADHQGIVPAVYVRRLAH [F10C] | -1.09 ± 0.33 |
| EQRVMALYDLQARSPREVTMKKGDVLTLLSSINKDWWKVEAADHQGIVPAVYVRRLAH [F10L] | -0.658 ± 0.16 |
| EQRVMALYDDQARSPREVTMKKGDVLTLLSSINKDWWKVEAADHQGIVPAVYVRRLAH [F10D] | -0.834 ± 0.36 |
| EQRVMALYDYQARSPREVTMKKGDVLTLLSSINKDWWKVEAADHQGIVPAVYVRRLAH [F10Y] | 0.625 ± 0.12 |
| EQRVMALYDQQARSPREVTMKKGDVLTLLSSINKDWWKVEAADHQGIVPAVYVRRLAH [F10Q] | -0.607 ± 0.11 |
| EQRVMALYDVQARSPREVTMKKGDVLTLLSSINKDWWKVEAADHQGIVPAVYVRRLAH [F10V] | -0.992 ± 0.23 |
| EQRVMALYDRQARSPREVTMKKGDVLTLLSSINKDWWKVEAADHQGIVPAVYVRRLAH [F10R] | -0.472 ± 0.11 |
| EQRVMALYDPQARSPREVTMKKGDVLTLLSSINKDWWKVEAADHQGIVPAVYVRRLAH [F10P] | -0.712 ± 0.2 |
| EQRVMALYDIQARSPREVTMKKGDVLTLLSSINKDWWKVEAADHQGIVPAVYVRRLAH [F10I] | -0.341 ± 0.44 |
| EQRVMALYDGQARSPREVTMKKGDVLTLLSSINKDWWKVEAADHQGIVPAVYVRRLAH [F10G] | -0.996 ± 0.44 |
| EQRVMALYDAQARSPREVTMKKGDVLTLLSSINKDWWKVEAADHQGIVPAVYVRRLAH [F10A] | -0.778 ± 0.1 |
| EQRVMALYDWQARSPREVTMKKGDVLTLLSSINKDWWKVEAADHQGIVPAVYVRRLAH [F10W] | 0.365 ± 0.085 |
